Source: publication PMC5835112

Biological target: CsrA (Yersinia pseudotuberculosis, UniProt B1JJ99 1-61)
Assay: analytical SEC; 50 uM CsrA, 25 uM RNA
Settings: protein: recombinant; tags: His6 (pET28a); chain copies: 2; hairpin (predicted)

Sequence of CsrA (B1JJ99 whole entry): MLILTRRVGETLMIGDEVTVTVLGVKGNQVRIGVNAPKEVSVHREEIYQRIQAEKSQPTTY

B1: urease SD RNA (Pure-CsrA RNA) (structured_RNA)
RNA: CUUUCACUUUCUUAACAUGAUACAGGAGGGCUUAUG
binding result: binds
